Measurements reported in PMC5149022, “A ^99mTc-tricine-HYNIC-labeled Peptide Targeting the Melanocortin-1 Receptor for Melanoma Imaging” (Iranian Journal of Pharmaceutical Research : IJPR, 2016).
Bridge positions count the residues as written; N and C are the ends. Square brackets hold non-standard residues; d marks the D form. Peptide text beside a SMILES is read from it. * marks the point of attachment. HYNIC = NNc1ccc(C(=O)*)cn1; Nle = CCCC[C@H](N)C(=O)O; GABA = NCCCC(=O)O

Key:
[1] = test system: B16/F10 tumor (MC1 receptor); assay: Biodistribution in B16/F10 tumor bearing nude mice; assay type: in vivo; conditions: nude mice with B16/F10 tumor
Procedure: Animal experiments were performed in compliance with the regulations of our institution and with generally accepted guidelines governing such work.Groups of three nude mice were used in each experiment. A suspension of B16/F10 cells (1×10^7) in PBS was subcutaneously injected in the right flank of each nude mice. Seven days after inoculation, the tumors were inducted and then, ^99mTc-tricine-HYNIC-peptide (20 MBq) was injected via a femoral vein. Also a group of three animals were injected with peptide ([…]) in saline (0.9%; […]) as a co-injection with the radiopeptide (blocked animals). After 1, 4 and 24 h, the groups of mice were killed, then the organs of interest were excised, weighed and counted in the gamma counter. The percentage of the injected dose per gram (% ID/g) was calculated for each tissue. At 4 h after injection, accumulation of the tracer in tumor area was also assessed by planar scintigraphy under ether anesthesia.

[2] = Stability of radiolabeled peptide in aqueous solution; assay type: physicochemical
Procedure: (§1) The stability of radiolabeled peptide in aqueous solution was evaluated by incubation of the reaction mixture at ambient temperature (25 °C) up to 24 h. Stability in human serum at 37 °C was tested in parallel after adding 100 μL of reaction mixture to 1mL of fresh human serum. The incubation mixtures were sampled at 1,6 and 24 h time points. Serum samples (100–200 μL) were treated with ethanol (200–400 μL) and centrifuged (4000 g, 5 min, 4 °C) to precipitate the serum proteins.20–100 μL aliquots from the supernatant were separated to assess the degradation of ^99mTc labeled peptide by RP-HPLC. 100 μL aliquots from the 25 °C incubated mixture were passed from a 0.22 μ filter to eliminate the probable ^99mTc colloids and then, 5–20 μL of filtrate were analyzed by RP-HPLC as well.

[3] = Protein binding by precipitation method; assay type: in vitro ADME
Procedure: Protein binding of radiolabeled peptide was measured by precipitationmethod resulting 37%forradioconjugate. Plasma proteins binding could be due to transchelation, which is possible with exchange reactions among co-ligands and the possible action of HYNIC as a mono- or bi-dentated ligand complexing ^99mTc.

[4] = Stability of radiolabeled peptide in human serum; assay type: in vitro ADME; conditions: fresh human serum, 37 °C, RP-HPLC with gamma detector
Procedure: as §1

CCCC[C@H](NC(=O)CCCNC(=O)c1ccc(NN)nc1)C(=O)N[C@H]1CC(=O)NCCCC[C@@H](C(N)=O)NC(=O)CNC(=O)[C@H](Cc2c[nH]c3ccccc23)NC(=O)[C@H](CCCNC(=N)N)NC(=O)[C@@H](Cc2ccccc2)NC(=O)[C@H](Cc2c[nH]cn2)NC1=O [^99mTc-tricine-HYNIC-peptide, ^99mTc-tricine-HYNIC-GABANle-CycMSHhept, metal not drawn] ({HYNIC-GABA}-[Nle]DH[dF]RWGK-NH2; lactam 2-8)
kidneys uptake ([1]; 20 MBq via femoral vein, 1 h after injection, n = 3): 7.38 ± 0.56 % ID/g
tumor uptake ([1]; 20 MBq via femoral vein, 4 h, n = 3): 4.51 ± 0.11 % ID/g
blood uptake ([1]; 1 h, n = 3): 1.26 ± 0.13 % ID/g
intestines uptake ([1]; 1 h, n = 3): 0.65±0.05 % ID/g
liver uptake ([1]; 1 h, n = 3): 1.48 ± 0.08 % ID/g
tumor uptake, blocked group ([1]; co-injection of cold peptide, time not stated): 2.33 % ID/g
liver uptake ([1]; time not stated): lower than 2.0 % ID/g
labeling yield remaining after incubation in aqueous solution ([2]; reaction mixture, ambient temperature (25 °C), 24 h, RP-HPLC with gamma detector): 75%
stability in aqueous solution (release of 99mTcO4- or peptide degradation) ([2]; reaction mixture, ambient temperature (25 °C), up to 6 h, 0.22 μ filtered, RP-HPLC with gamma detector): no significant release of ^99mTcO4^− or peptide degradation
radiochemical stability ([2]; up to 6 h post labeling): excellent radiochemical stability
protein binding [3]: 37%
labeling yield remaining after incubation in human serum ([4]; 24 h): 75%
stability in human serum (release of 99mTcO4- or peptide degradation) ([4]; 100 μL reaction mixture in 1 mL serum, up to 6 h, ethanol precipitation): no significant release of ^99mTcO4^− or peptide degradation
